Laboratory results published in patent EP3216458A1.

Molecular target: Neuropilin-1 (Nrp-1), zebrafish (zebrafish) (UniProt Q8QFX6)
Assay: cell-based or functional assay

Chain of UniProt Q8QFX6 (Q8QFX6 20-923 limits assumed): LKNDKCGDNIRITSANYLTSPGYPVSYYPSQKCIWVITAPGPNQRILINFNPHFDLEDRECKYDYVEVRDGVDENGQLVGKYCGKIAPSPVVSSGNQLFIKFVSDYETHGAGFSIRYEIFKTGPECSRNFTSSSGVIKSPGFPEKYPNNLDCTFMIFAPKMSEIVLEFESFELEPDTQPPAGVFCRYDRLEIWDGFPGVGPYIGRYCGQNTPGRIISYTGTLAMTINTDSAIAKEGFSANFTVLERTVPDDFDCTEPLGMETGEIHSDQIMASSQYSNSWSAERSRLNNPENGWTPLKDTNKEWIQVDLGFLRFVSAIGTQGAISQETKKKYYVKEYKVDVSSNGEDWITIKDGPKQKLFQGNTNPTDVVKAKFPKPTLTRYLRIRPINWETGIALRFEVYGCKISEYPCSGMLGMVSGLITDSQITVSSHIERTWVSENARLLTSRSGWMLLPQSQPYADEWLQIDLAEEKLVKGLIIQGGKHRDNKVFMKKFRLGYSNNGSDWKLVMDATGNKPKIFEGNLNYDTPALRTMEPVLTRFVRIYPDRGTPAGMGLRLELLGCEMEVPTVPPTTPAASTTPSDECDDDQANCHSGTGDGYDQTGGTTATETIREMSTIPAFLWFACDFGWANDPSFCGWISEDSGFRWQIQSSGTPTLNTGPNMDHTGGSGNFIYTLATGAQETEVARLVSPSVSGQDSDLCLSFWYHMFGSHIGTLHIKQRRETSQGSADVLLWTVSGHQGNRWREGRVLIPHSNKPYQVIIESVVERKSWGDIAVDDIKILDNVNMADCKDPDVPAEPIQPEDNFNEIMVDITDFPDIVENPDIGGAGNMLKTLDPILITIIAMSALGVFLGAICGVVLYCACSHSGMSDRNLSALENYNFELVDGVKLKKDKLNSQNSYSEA

Rescue percentage (embryos with blood flow circulation and without pericardial edema after mRNA injection into vegfaa-/- zebrafish): 3%
Substance: Vegfaa-165 R165E (zebrafish VEGF-A isoform 165 with arginine 165 changed to glutamic acid) (ligand)
